Biological target: T1, guanine nucleotide dissociation inhibitor (GDI) (yeast, UniProt P39958 1-451)
T1 construct: expressed as GST-PreSc-GDI; also called Gdi1; source: E. coli BL21 DE3 (Rosetta), purified (glutathione sepharose, cleaved from the beads with PreScission protease); not shown: GST, N-terminal, cleaved
T1 sequence (looked up): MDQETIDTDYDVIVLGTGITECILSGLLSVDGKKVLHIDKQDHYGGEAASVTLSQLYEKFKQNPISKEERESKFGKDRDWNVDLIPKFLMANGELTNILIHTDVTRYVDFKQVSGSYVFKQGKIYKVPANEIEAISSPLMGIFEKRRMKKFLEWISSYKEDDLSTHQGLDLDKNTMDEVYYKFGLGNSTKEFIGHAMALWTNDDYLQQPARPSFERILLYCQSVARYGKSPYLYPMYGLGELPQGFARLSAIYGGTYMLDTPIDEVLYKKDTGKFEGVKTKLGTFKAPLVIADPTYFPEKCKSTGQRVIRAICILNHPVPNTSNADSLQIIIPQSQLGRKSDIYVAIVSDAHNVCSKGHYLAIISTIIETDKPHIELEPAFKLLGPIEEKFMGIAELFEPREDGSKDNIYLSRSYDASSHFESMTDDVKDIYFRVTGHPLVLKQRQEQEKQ
Experiment: SEC; after in vitro prenylation (Rab GTPase, GDI, His6-Mrs6, Bet4 His6-TEV-Bet2 at 10:9:1:1, 37°C, 1.5 h) and removal of His6-Mrs6 and Bet4 His6-TEV-Bet2 on Ni2+ resin, the supernatant was loaded on a Superdex200 increase column; prenylation buffer 50 mM HEPES-NaOH pH 7.4, 150 mM NaCl, 1.5 mM MgCl2, 1 mM DTT
Settings: both partners purified

binding result: binds
B1: prenylated Ypt7 (natural protein, yeast, UniProt P32939 1-208, looked up)
chain: MSSRKKNILKVIILGDSGVGKTSLMHRYVNDKYSQQYKATIGADFLTKEVTVDGDKVATMQVWDTAGQERFQSLGVAFYRGADCCVLVYDVTNASSFENIKSWRDEFLVHANVNSPETFPFVILGNKIDAEESKKIVSEKSAQELAKSLGDIPLFLTSAKNAINVDTAFEEIARSALQQNQADTEAFEDDYNDAINIRLDGENNSCSC
modifications: prenylated in vitro with geranylgeranyl pyrophosphate (C-terminal prenyl anchor; positions not stated)
notes: Ypt7, the Rab7-like GTPase of yeast; The methods list GST-TEV-Ypt7 (cleaved off the beads with TEV protease), Ypt7-His6 and, once, His6-TEV-Ypt7; I surmise that the prenylated Ypt7 came from GST-TEV-Ypt7, because it has a free C-terminus; also called Rab7-like Ypt7; Ypt7-GDP; source: E. coli BL21 DE3 (Rosetta), purified; preloaded with GDP and prenylated in vitro (Mrs6, Bet4-Bet2, geranylgeranyl …)
